B1: KCNG1 (parent)
chain: LFVTVTAVNLSVSTLPSLREEEEQ
B2: SNAP91 (parent)
chain: FGGSFMAPSPSPVTPAQNNLLQPN

Variants of: B1
Experiment: protein stability index of a GFP-peptide fusion (GPS, HEK-293T) (PSI 1-6); higher = more stable
Conditions: c terminus: a fixed tail appended
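Further: lentivirally expressed fusions sorted by FACS into six bins by GFP to DsRed ratio, PSI derived from sequencing read proportions per bin multiplied by bin number.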

| Variant | protein stability index |
| --- | --- |
| LFVTLTAVNLSVSTLPSLREEEEQ [V5L] | 2.2 |
| LFVTTTAVNLSVSTLPSLREEEEQ [V5T] | 3.16 |
| LFVTCTAVNLSVSTLPSLREEEEQ [V5C] | 2.1 |
| LFVTSTAVNLSVSTLPSLREEEEQ [V5S] | 3.5 |
| LFVTGTAVNLSVSTLPSLREEEEQ [V5G] | 3.99 |
| LFVTHTAVNLSVSTLPSLREEEEQ [V5H] | 3.52 |
| LFVTATAVNLSVSTLPSLREEEEQ [V5A] | 2.42 |
| LFVTDTAVNLSVSTLPSLREEEEQ [V5D] | 4.51 |
| LFVTMTAVNLSVSTLPSLREEEEQ [V5M] | 2.18 |
| LFVTNTAVNLSVSTLPSLREEEEQ [V5N] | 3.64 |
| LFVTKTAVNLSVSTLPSLREEEEQ [V5K] | 3.75 |
| LFVTYTAVNLSVSTLPSLREEEEQ [V5Y] | 2.14 |
| LFVTVTAVPLSVSTLPSLREEEEQ [N9P] | 1.73 |
| LFVTVTAVYLSVSTLPSLREEEEQ [N9Y] | 2.02 |
| LFVTVTAVDLSVSTLPSLREEEEQ [N9D] | 1.45 |
| LFVTVTAVTLSVSTLPSLREEEEQ [N9T] | 3.74 |
| LFVTVTAVHLSVSTLPSLREEEEQ [N9H] | 3.18 |
| LFVTVTAVQLSVSTLPSLREEEEQ [N9Q] | 2.65 |
| LFNTVTAVNLSVSTLPSLREEEEQ [V3N] | 4.51 |

| Variant | protein stability index |
| --- | --- |
| LFFTVTAVNLSVSTLPSLREEEEQ [V3F] | 1.65 |
| LFWTVTAVNLSVSTLPSLREEEEQ [V3W] | 1.91 |
| LFETVTAVNLSVSTLPSLREEEEQ [V3E] | 4.93 |
| LFSTVTAVNLSVSTLPSLREEEEQ [V3S] | 4.05 |
| LFMTVTAVNLSVSTLPSLREEEEQ [V3M] | 1.75 |
| LFHTVTAVNLSVSTLPSLREEEEQ [V3H] | 3.75 |
| LFPTVTAVNLSVSTLPSLREEEEQ [V3P] | 5.3 |
| LFDTVTAVNLSVSTLPSLREEEEQ [V3D] | 4.92 |
| LFATVTAVNLSVSTLPSLREEEEQ [V3A] | 2.67 |
| LFKTVTAVNLSVSTLPSLREEEEQ [V3K] | 3.71 |
| LFRTVTAVNLSVSTLPSLREEEEQ [V3R] | 4.5 |
| LFITVTAVNLSVSTLPSLREEEEQ [V3I] | 2.67 |
| LFLTVTAVNLSVSTLPSLREEEEQ [V3L] | 1.53 |
| LFQTVTAVNLSVSTLPSLREEEEQ [V3Q] | 3.58 |
| LFYTVTAVNLSVSTLPSLREEEEQ [V3Y] | 1.92 |
| LFTTVTAVNLSVSTLPSLREEEEQ [V3T] | 4.52 |
| LFGTVTAVNLSVSTLPSLREEEEQ [V3G] | 3.53 |
| LFCTVTAVNLSVSTLPSLREEEEQ [V3C] | 2.65 |

Variants of: B2
Experiment: as above
Conditions: c terminus: a fixed tail appended

| Variant | protein stability index |
| --- | --- |
| FGGSFMAPSPRPVTPAQNNLLQPN [S11R] | 1.68 |
| FGGSFMAPSPMPVTPAQNNLLQPN [S11M] | 2.83 |
| FGGSFMAPSPVPVTPAQNNLLQPN [S11V] | 3.42 |
| FGGSFMAPSPQPVTPAQNNLLQPN [S11Q] | 3.14 |
| FGGSFMAPSPSPVFPAQNNLLQPN [T14F] | 1.79 |
| FGGSFMAPSPSPVLPAQNNLLQPN [T14L] | 2.13 |
| FGGSFMAPSPSPVNPAQNNLLQPN [T14N] | 1.89 |
| FGGSFMAPSPSPVGPAQNNLLQPN [T14G] | 2.08 |
| FGGSFMAPSPSPVQPAQNNLLQPN [T14Q] | 2.43 |
| FGGSFMAPSPSPVIPAQNNLLQPN [T14I] | 1.7 |
| FGGSFMAPSPSPVRPAQNNLLQPN [T14R] | 1.54 |
| FGGSFMAPSPSPVKPAQNNLLQPN [T14K] | 2.84 |
| FGGSFMAPSPSPVWPAQNNLLQPN [T14W] | 1.95 |
| FGGSFMAPSPSPVCPAQNNLLQPN [T14C] | 4.16 |
| FGGSFMAPSPSPVVPAQNNLLQPN [T14V] | 2.2 |
| FGGSFMAPSPSPVEPAQNNLLQPN [T14E] | 1.31 |
| FGGSFMAPSPSPVMPAQNNLLQPN [T14M] | 2.4 |
| FGGSFMAPSPSPVDPAQNNLLQPN [T14D] | 1.29 |
| FGGSFMAPSPSPVTPAQNNLRQPN [L21R] | 2.88 |

| Variant | protein stability index |
| --- | --- |
| FGGSFMAPSPSPVTNAQNNLLQPN [P15N] | 1.79 |
| FGGSFMAPSPSPVTFAQNNLLQPN [P15F] | 2.84 |
| FGGSFMAPSPSPVTIAQNNLLQPN [P15I] | 2.65 |
| FGGSFMAPSPSPVTMAQNNLLQPN [P15M] | 3.65 |
| FGGSFMAPSPSPVTLAQNNLLQPN [P15L] | 1.95 |
| FGGSFMAPSPSPVTDAQNNLLQPN [P15D] | 2.67 |
| FGGSFMAPSPSPVTRAQNNLLQPN [P15R] | 2.4 |
| FGGSFMAPSPSPVTSAQNNLLQPN [P15S] | 2.19 |
| FGGSFMAPSPSPVTQAQNNLLQPN [P15Q] | 2.27 |
| FGGSFMAPSPSPVTHAQNNLLQPN [P15H] | 2.27 |
| FGGSFMAPSPSPVTEAQNNLLQPN [P15E] | 1.93 |
| FGGSFMAPSPSPVTTAQNNLLQPN [P15T] | 2.01 |
| FGGSFMAPSPSPVTAAQNNLLQPN [P15A] | 1.86 |
| FGGSFMAPSPSPVTKAQNNLLQPN [P15K] | 1.83 |
| FGGSFMAPSPSPVTGAQNNLLQPN [P15G] | 2.3 |
| FGGSFMAPSPSPVTCAQNNLLQPN [P15C] | 4.08 |
| FGGSFMAPSPSPVTVAQNNLLQPN [P15V] | 2.12 |
| FGGSFMAPSPSPVTWAQNNLLQPN [P15W] | 1.6 |
| FGGSFMAPSPSPVTYAQNNLLQPN [P15Y] | 2.91 |

| Variant | protein stability index |
| --- | --- |
| FGGSFMAPSPSFVTPAQNNLLQPN [P12F] | 1.62 |
| FGGSFMAPSPSMVTPAQNNLLQPN [P12M] | 2.62 |
| FGGSFMAPSPSEVTPAQNNLLQPN [P12E] | 1.77 |
| FGGSFMAPSPSWVTPAQNNLLQPN [P12W] | 1.83 |
| FGGSFMAPSPSDVTPAQNNLLQPN [P12D] | 1.8 |
| FGGSFMAPSPSIVTPAQNNLLQPN [P12I] | 1.94 |
| FGGSFMAPSPSLVTPAQNNLLQPN [P12L] | 1.61 |
| FGGSFMAPSPSHVTPAQNNLLQPN [P12H] | 2.53 |
| FGGSFMAPSPSRVTPAQNNLLQPN [P12R] | 2.17 |
| FGGSFMAPSPSAVTPAQNNLLQPN [P12A] | 2 |
| FGGSFMAPSPSYVTPAQNNLLQPN [P12Y] | 2.09 |
| FGGSFMAPSPSGVTPAQNNLLQPN [P12G] | 1.72 |
| FGGSFMAPSPSQVTPAQNNLLQPN [P12Q] | 2.21 |
| FGGSFMAPSPSNVTPAQNNLLQPN [P12N] | 2.31 |
| FGGSFMAPSPSSVTPAQNNLLQPN [P12S] | 1.27 |
| FGGSFMAPSPSCVTPAQNNLLQPN [P12C] | 2.72 |
| FGGSFMAPSPSVVTPAQNNLLQPN [P12V] | 1.73 |
| FGGSFMAPSPSKVTPAQNNLLQPN [P12K] | 1.47 |
| FGGSFMAPSPSTVTPAQNNLLQPN [P12T] | 1.01 |
